Measured values taken from US20230235068A1 (published 2023).
One block for each binder: values may come before it.

Columns and labels:
[1] = target: T1, recombinant rat LEPR extracellular domain expressed with a C-terminal myc-myc-hexahistidine tag (rat, UniProt Q62959 22-839); test: SPR, captured mAb, 25 C
T1 construct: Monomeric construct; also called rLEPR.MMH; rLEPR-MMH
Protocol: (§1) Equilibrium dissociation constants (KD values) for antigen binding to purified anti-LEPR monoclonal antibodies of the invention were determined using a real-time surface plasmon resonance biosensor using a Biacore 4000 instrument. All binding studies were performed in running buffer containing 10 mM HEPES, 150 mM NaCl, 3 mM EDTA, and 0.05% v/v Surfactant Tween-20, pH 7.4 (HBS-ET running buffer) at 25° C. and 37° C. The Biacore sensor surface was first derivatized by amine coupling with a monoclonal mouse anti-human Fc antibody (GE, #BR-1008-39) to the capture anti-LEPR monoclonal antibodies. […] The dissociation of monoclonal antibody bound LEPR reagent was monitored for 10 minutes in HBS-ET running buffer. Kinetic association (kₐ) and dissociation (kd) rate constants were determined by fitting the real-time binding sensorgrams to a 1:1 binding model with mass transport limitation using Scrubber 2.0c curve-fitting software. Binding dissociation equilibrium constants (KD) and dissociative half-lives (t½) were calculated from the kinetic rate constants as: […]

[2] = target: T2, recombinant mouse LEPR extracellular domain expressed with a C-terminal myc-myc-hexahistidine tag (mouse, UniProt P48356 22-839); test: SPR, captured mAb, 37 C
T2 construct: Monomeric construct; also called mLEPR.MMH; mLEPR-MMH
Protocol: as §1

T1 sequence (Q62959 other isoform, or with tags, fused parts or gaps): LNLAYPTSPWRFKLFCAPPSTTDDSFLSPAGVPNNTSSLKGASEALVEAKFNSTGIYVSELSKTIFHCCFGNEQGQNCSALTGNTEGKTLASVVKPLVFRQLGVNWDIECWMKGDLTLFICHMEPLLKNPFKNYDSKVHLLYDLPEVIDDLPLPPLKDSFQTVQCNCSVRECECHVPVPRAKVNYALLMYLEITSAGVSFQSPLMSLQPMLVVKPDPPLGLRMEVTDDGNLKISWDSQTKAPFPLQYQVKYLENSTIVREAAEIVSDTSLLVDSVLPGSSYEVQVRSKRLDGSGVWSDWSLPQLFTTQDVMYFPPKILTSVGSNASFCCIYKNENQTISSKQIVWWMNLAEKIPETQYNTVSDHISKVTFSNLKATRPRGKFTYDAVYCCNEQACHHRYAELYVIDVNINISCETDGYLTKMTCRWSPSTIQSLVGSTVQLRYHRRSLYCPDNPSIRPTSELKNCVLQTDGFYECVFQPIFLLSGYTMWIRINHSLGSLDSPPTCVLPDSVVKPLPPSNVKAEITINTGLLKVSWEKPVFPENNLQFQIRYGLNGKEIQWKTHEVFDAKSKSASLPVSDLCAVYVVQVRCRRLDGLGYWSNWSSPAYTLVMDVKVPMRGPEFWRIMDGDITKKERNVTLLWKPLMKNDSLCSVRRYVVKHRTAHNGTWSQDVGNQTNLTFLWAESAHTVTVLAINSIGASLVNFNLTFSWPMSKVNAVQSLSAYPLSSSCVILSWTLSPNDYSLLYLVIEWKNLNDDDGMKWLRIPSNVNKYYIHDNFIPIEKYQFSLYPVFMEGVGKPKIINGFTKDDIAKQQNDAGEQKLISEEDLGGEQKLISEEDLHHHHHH
T2 sequence (P48356 other isoform, or with tags, fused parts or gaps): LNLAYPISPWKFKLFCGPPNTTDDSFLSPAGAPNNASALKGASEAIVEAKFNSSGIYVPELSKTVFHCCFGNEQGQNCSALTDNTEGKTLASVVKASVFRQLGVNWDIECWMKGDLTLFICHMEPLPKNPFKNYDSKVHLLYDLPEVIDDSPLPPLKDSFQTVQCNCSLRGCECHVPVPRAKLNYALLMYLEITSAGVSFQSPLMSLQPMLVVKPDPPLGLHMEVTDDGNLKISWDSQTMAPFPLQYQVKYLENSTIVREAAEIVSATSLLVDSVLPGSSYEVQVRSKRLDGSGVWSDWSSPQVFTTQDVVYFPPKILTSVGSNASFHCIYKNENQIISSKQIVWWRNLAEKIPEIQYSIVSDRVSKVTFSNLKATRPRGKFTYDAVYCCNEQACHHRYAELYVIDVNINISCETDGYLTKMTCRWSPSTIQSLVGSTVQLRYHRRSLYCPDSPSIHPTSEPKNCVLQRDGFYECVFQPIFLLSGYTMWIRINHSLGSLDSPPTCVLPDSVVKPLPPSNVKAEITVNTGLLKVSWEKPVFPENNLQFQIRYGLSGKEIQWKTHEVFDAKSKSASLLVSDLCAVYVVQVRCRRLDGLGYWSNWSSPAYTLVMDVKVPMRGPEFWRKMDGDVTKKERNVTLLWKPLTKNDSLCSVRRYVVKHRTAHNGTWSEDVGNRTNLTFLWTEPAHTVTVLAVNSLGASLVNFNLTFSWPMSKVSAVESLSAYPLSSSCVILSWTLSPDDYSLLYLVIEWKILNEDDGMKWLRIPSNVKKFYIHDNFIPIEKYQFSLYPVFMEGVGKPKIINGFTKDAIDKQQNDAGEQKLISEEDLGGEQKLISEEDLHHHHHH

100 nM rLEPR-MMH Bound (RU) [1]: 10 RU
B1: H4H17322P2 (antibody, human IgG4, V domains shown)
VH: QLQLQESGPGLVKPSETLSLTCTVSGASISSSRFYGGWIRQPPGKGLEWIGDIYYSGNTYYNPSLQSRVTISVDTSKNQFSLKLSSVTAADTAVYYCARHLMITFGGLIVEGFDIWGQGTMVTVSS
VL: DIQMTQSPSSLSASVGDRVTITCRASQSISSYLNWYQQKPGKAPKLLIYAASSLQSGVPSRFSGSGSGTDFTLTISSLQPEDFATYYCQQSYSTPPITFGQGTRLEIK
notes: Fully human variable regions; H4H prefix = human IgG4 Fc

100 nM mLEPR-MMH Bound (RU) [2]: 3 RU
B2: H4H18462P2 (antibody, human IgG4, V domains shown)
VH: EVQLVESGGDLVQPGRSLRLSCAASGFTFSSFAMSWVRQAPGRGLEWVSSLSDSGDNTYYADSVKGRFTISRDNSKNTLYLQMNNLRAEDTAVYYCAKDLFSGWLFHGFDVWGQGTMVTVSS
VL: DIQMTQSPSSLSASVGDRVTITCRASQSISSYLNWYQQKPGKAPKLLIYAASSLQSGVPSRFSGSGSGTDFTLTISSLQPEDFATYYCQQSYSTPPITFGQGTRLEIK
notes: as for B1
